In the nanobody polyreactivity screen of Harvey et al. (2022):

assay: yeast display, Sf9 membrane polyspecificity reagent, FACS + sequencing; frameworks hold sequencing errors
Outline: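 Galactose induction of a Saccharomyces cerevisiae BJ5465 synthetic nanobody display library ran 36–48 hours. The cells were then stained for 1 hour at 4 °C with 10% biotinylated, detergent-solubilized Sf9 membrane reagent, pulled down on streptavidin microbeads and FACS-sorted into low and high (top ~1%) gates on expression and reagent-binding fluorescence. Labels for polyreactivity follow the gate of origin.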

Row | Sequence | polyreactivity (PSR sort gate)
1 | QVQLVESGGGLVQAGGSLRLSCAPSGITFRPNAMGWYRQARGKERELVAAISSGDGTYADSVKGRFTISRDNAKNTVYLQMNSLKPEDSAVYYCNATGQSYVTSEYDYWGQGTQVTVSS | low polyreactivity
2 | QVQLVESGGGLVQAGGSLRLSCAPSGITFRVNAMGWYRQAPGKERELVASISRSGGSTYYADSVKGRFTISRDHAKNNVYLQMKSLKPEDTAVYYCADAQKVLFYGRWFDYWGQCTQVTVSS | low polyreactivity
3 | QVQLVESGGGLVQAGGSLRLSCAPSGLIFAHYDMGWYRHAPGKERELVAGITSGGSTNYADSVKGRFTISRDNAKITVYLQMNSQKPEYTAVYYCNADRAGFLGFYLYDYWGQGTQVTVSS | low polyreactivity
4 | QVQLVESGGGLVQAGGSLRLSCAPSGNIFETYAMGWYRPAPGKERELVAVITRGGSTYYADSVKGRFTISRDNAKNTVYLQMNSLKPEDTAVYYCARDAYDDWYGLTDDKSDYWGQGTQVTLSS | low polyreactivity
5 | QVQLVESGGGLVQAGGSLRLSCAPSGRIFNAYAMGWYRQAPGKERELVAAITVSGTRTYYADSVKGRFTISRDNAKNTVYLQMNSLKPEDSAVYYCNAGRGGVLDYGYWGQGTQVTVSS | high polyreactivity
6 | QVQLVESGGGLVQAGGSLRLSCAPSGRIFSINAMGWYRQAPGKERELVAAITSGGSTKYADSVKGRFTISRDNAKNTVYLQMNSLKPEDTAVYYCAAAPGYLYWKVDYNYWGQGTQVTVSS | high polyreactivity
7 | QVQLVESGGGLVQAGGSLRLSCAPSGRIFTHNVRGWYRQAPGKERELVAAISASGGSTYYADSVKGRFTISRDNAKNTVYLQMNSLKPEDTAVYYCNAEWAVRYPGYDYWGQGTQVTVSS | low polyreactivity
8 | QVQLVESGGGLVQAGGSLRLSCAPSGRIFVLYTMGWYRQAPGKERELVAAIRGGGSTNYADSVKGRFTISRDNAKNTVYLQMNSLKPEDTAVSYCAARYYREYDYWGQGTQVTVSS | high polyreactivity
9 | QVQLVESGGGLVQAGGSLRLSCAPSGRIFYSNDMGWYRQAPGKERELVAAIRDSAGSTRYADSVKGRFTISRVNAKNTVYLQMNSLKPEDTAVFYGHKDYVSIYFEYLDDYWGQGTQVTVSS | low polyreactivity
10 | QVQLVESGGGLVQAGGSLRLSCAPSGRIVGKYVMGWDRQAPRKERELVAGICWSAGSTYYADSVKGRFTISRDNAKNTVYLQMNSLKPEDTAVYYCAAGLEGGSDYWGQGTQVTVSS | low polyreactivity
11 | QVQLVESGGGLVQAGGSLRLSCAPSGRIYATYAMGWYRQAPGKDSELVAAISDSGGRTYYADSVKGRFTISRDNAKNTVYLQMKSLKPEVNAVYYCAAKNGDRYARGYWGQGTQVNVSS | high polyreactivity
12 | QVQLVESGGGLVQAGGSLRLSCAPSGRTFYINAMGWYRQAPGKEREFVAAITTSGGGTYYADSVKGRFTISRDNAKNTVYLQMNSLKPEDTAVYYCNTRSRRGKDGRYDYWGQGTQVTVSS | high polyreactivity
13 | QVQLVESGGGLVQAGGSLRLSCAPSGSIFDFNTMGWYRQAPGKERELVAAISQRTGRTYYADSVKGRFTISRDNAKNTVYLQMNSLKPEDTAVYYCARTDRRLGAHQGDYWGQGTQVTVSS | high polyreactivity
14 | QVQLVESGGGLVQAGGSLRLSCAPSGSIFGINARAWYRQAPGKERELVAAISSGGSTNNADSVKGRFTISRDNAKNTVYFQMNSLKPEDTAVYYCAARLYYVRYNYWGQGTQGTVSS | high polyreactivity
15 | QVQLVESGGGLVQAGGSLRLSCAPSGSIFQFYAMGWYRQAPGKESELVAGINTSGGSTYYADSVKGRFTISRDNAKNTVYLQMNSLKPEDTEVYYCMARSRYDTGRQRGYDYWGQGTQVTVSS | low polyreactivity
16 | QVQLVESGGGLVQAGGSLRLSCAPSGSIFRYYAMGWYRQAPGKERELVAAISWSGTSTYYADSVKGRFTISRDNAKNTVYLQMNSLKPEDTAVYYCNKVIPANIRRSYDYWGQGTQVTVSS | high polyreactivity
17 | QVQLVESGGGLVQAGGSLRLSCAPSGSIFSAYAMGWYRQAPGKERELVAAITRGTSTNYADSVKGRFTISRDNAKNTVYLQMNSLKPEDTAVYYCAAEYGWYYVNFYYWGQGTQVTVSS | low polyreactivity
18 | QVQLVESGGGLVQAGGSLRLSCAPSGSIVNRYALGWYRQAPGKEREFVAAITRRGGYTYYADSVKGRFTISRDNAKNSVYLPLNSLKPEDTAVYYCAAPFYYPAGLLYYENNYWRQGTQVTVSS | high polyreactivity
19 | QVQLVESGGGLVQAGGSLRLSCAPSGSTFFSKTMGWYRQAPWKERELVAAINDSGTSTYYADSVKRRFTISRDNSKKTVYLQMNSLKPEDTAVYYCAAYPSGWYDYWGQGTQVTVSS | low polyreactivity
20 | QVQLVESGGGLVQAGGSLRLSCAPSGSTFGYNDMGWYRQAPGKERELVAAIDTGVSTNYADSVKGRFTISRDNAMNTVYLQMNSLKPVDTAVYYLAKSGSAYWHSGWSVGFDYWGQGTQVTVSS | low polyreactivity
21 | QVQLVESGGGLVQAGGSLRLSCAPSGSTFIPNPMGWYRQAPGKERELVAAISRRGGSTNYADSVKGRFTISRDNAKNTVYLQMNSLKPEDTALYYCAAVSPRRYRYDYWGQGPQVTVSS | low polyreactivity

Row | Sequence | polyreactivity (PSR sort gate)
22 | QVQLVESGGGLVQAGGSLRLSCAPSGSTFRPYGMGWYRQAPCKETELVAAINSGDSTYYADSVKGRFTISSDNAKNTVYLQMNSLKPEDTAVYYCAAGYYIRGRYGYWGQATQVTVSS | high polyreactivity
23 | QVQLVESGGGLVQAGGSLRLSCAPSGSTFRRNTMGWYRQAPGKARELVAGISSSGGSTYYADSVKGRFTISRDNAKNTVYLQMNSLKPEDTAVYYCAARFYVSYVGYNYWGQGSQVTVSS | high polyreactivity
24 | QVQLVESGGGLVQAGGSLRLSCAPSGSTFRVYGMGWYRQAPGKETELVAVIRWRGGRTSYADSVKGRFTISRDNAKNTVYLQMNSLKPEDTAVYYCAAAYWNDWSQYDYWGQGTQVTVSS | high polyreactivity
25 | QVQLVESGGGLVQAGGSLRLSCAPSGSTFYPNAKGWYRQAPRKERELVAAISRSGGSTYYADSVKGRFTISRDNAKNTVYLQMNSLKPEDTAVYYCAADGRSPARYDYWGQGTQVTVSS | low polyreactivity
26 | QVQLVESGGGLVQAGGSLRLSCAPSGSTFYVNAMGWYRQAPGKEREFVAAITWNSGSTYYADSVKGRFTISRDNAKNTVYLQMNSLKPEDTAVYYCAADGYHYVTYLVSYGYWGQGTQVTVSS | low polyreactivity
27 | QVQLVESGGGLVQAGGSLRLSCAPSGSTFYYYAMGWYRQAPGKERELVAAITWSGGSTRYADSVKGRFTISRDNAKNTVYLQMKSLKPEDTAVYYCAAYYRKTGFEYWGQGSQVTVSS | high polyreactivity
28 | QVQLVESGGGLVQAGGSLRLSCAPSGSTLYFYAMGWYRQAPGKERELDADITWSGGSTYYADSVKGRFTISRDNAKNTVYLQMNSLKPEDTAVYYCNADDWSTYWYGYPGYVYWGQGTQVTVSS | high polyreactivity
29 | QVQLVESGGGLVQAGGSLRLSCAPSGSTYLSYAMGWYRQAPGKERELVAAITYSGGRTYYAESVKGRFTISRDNAKITVYLQMNSLKQEDTAVYYCAATGVFRDEYWGQGTQVTVSS | low polyreactivity
30 | QVQLVESGGGLVQAGGSLRLSCAPSGYIFEIYAMGWYSQEPGKERELVAAISTRGGRTYYADSVKGRFTISRDKAKNTVYLQMNSLKPEDTAVYYCAAGFPYKFTYVGGYNHWGQGTQVTVSS | low polyreactivity
31 | QVQLVESGGGLVQAGGSLRLSCAPSGYIIRQYAMGWYRQAPGKEREFVAAISQTGGSTYYADSVKGRFTISRDNAKNTVYLQMNSLKPEDTAVYYCAARYRGQRYRKLDYWGQGTQVTVSS | high polyreactivity
32 | QVQLVESGGGLVQAGGSLRLSCAPSGYTFGKYAMGWYRHAPVKERELVATIRSGGSTNYADSVKGRFTISRDNAKNTVYLQMNSLKPEDTAVYYCNKRYRYQYGYDFWGQGTQVTVSS | high polyreactivity
33 | QVQLVESGGGLVQAGGSLRLSCAPSVRIFGTNAMGWYRQAPGTERELVADITSGGSTNYADSVKGRFTISRDNAKNTVYLQMISLKPEDTAVYYCAADVIGDLRWYRDEYWGQGTQVTVSS | low polyreactivity
34 | QVQLVESGGGLVQAGGSLRLSCASSGFIFPLYAMGWYRKAPGKERELVAAITWRGDTTSYADSVKGRFTISRDNAKNTVYLLMIRLKPEDNAVYYCNARGYFGWYAMDYWGQGTQVTVSS | high polyreactivity
35 | QVQLVESGGGLVQAGGSLRLSCASSGFTFDINAMGWYRQAPGKERELVAVITWNDGSTYYADSVKGRFTISRDNAKNTVYLQMNSLKPEDTAVYYCAAEYADSWSAFDWNYYYWGQGTQVTVSS | high polyreactivity
36 | QVQLVESGGGLVQAGGSLRLSCASSGFTFFRNAMGWYRQAPGKERELVAAISGSGGRTYYADSVKGRFTISRDNAKNTVYLQMNSLKLEDTAVYYCAAVPVDPGYDYWGQVTQVTVSS | high polyreactivity
37 | QVQLVESGGGLVQAGGSLRLSCASSGFTFHSYAMGWYRQAPGKERELVAAISTGGTRTYYADSVKGRFTISRDNAKNTVYLQMNSLKTEDTAVYYCAADLYRGVRIYSKYDSWGQGTQVTVSS | high polyreactivity
38 | QVQLVESGGGLVQAGGSLRLSCASSGFTFPYYAMGGYRQAPGKERELVAAISWGGGSTYYADSVKGRFTISRDNAKNTVYLQMNSLKPEDTAVYYCNAYEYLSAGYDYWGQGTQVTVSS | low polyreactivity
39 | QVQLVESGGGLVQAGGSLRLSCASSGFTFSRNVMGWYRQAPGKETELVADITLSGASTYYADSVKGRFTISRDNAKNPDYLQMNSLKPEDTAVYYCAADPYHWRWGWRHVYWGQGTQVTVSS | low polyreactivity
40 | QVQLVESGGGLVQAGGSLRLSCASSGFTFTLYARGWYRQAPGKEWELVAAINRSGGRTYYADSVKGRFTISRDNAKNTVYLQMNSLKPEDTAVYYCNKYPWPNYYDGEYDYWGQGTQVTVSS | high polyreactivity
41 | QVQLVESGGGLVQAGGSLRLSCASSGFTFYYNAMGWYRQAPGQERELVASITRSGGRTYYSDSVKGRFTISRDNAKNTVYLQMNSLKPEDTAVYYCARRYPGGYYWGQGTHVTVSS | high polyreactivity
